B1: SFRS1 (parent)
chain: RDIDLKNRRGGPPFAFVEFEDPRD
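Further: lentivirally expressed fusions sorted by FACS into six bins by GFP to DsRed ratio, PSI derived from sequencing read proportions per bin multiplied by bin number.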

This data set covers variants of B1. Description: protein stability index of a GFP-peptide fusion (GPS, HEK-293T) (PSI 1-6); higher = more stable. The settings on record: c terminus: a fixed tail appended.
Turning to RDIWLKNRRGGPPFAFVEFEDPRD, the protein stability index came out at 2.35.

Turning to RDITLKNRRGGPPFAFVEFEDPRD, the protein stability index worked out at 3.28.

On to RDINLKNRRGGPPFAFVEFEDPRD, for which the protein stability index was found to be 3.61.

In the case of RDIFLKNRRGGPPFAFVEFEDPRD, the protein stability index was determined as 2.81.

In the case of RDIKLKNRRGGPPFAFVEFEDPRD, the protein stability index was determined as 3.47.

With RDIVLKNRRGGPPFAFVEFEDPRD, the protein stability index turned out to be 2.85.

Consider RDIHLKNRRGGPPFAFVEFEDPRD, for which the protein stability index was 3.25.

As for RDIRLKNRRGGPPFAFVEFEDPRD, the protein stability index was 3.45.

RDIQLKNRRGGPPFAFVEFEDPRD: the protein stability index stood at 3.57.

Turning to RDISLKNRRGGPPFAFVEFEDPRD, the protein stability index is 3.83.

Regarding RDIALKNRRGGPPFAFVEFEDPRD, the protein stability index came out at 3.11.

RDIILKNRRGGPPFAFVEFEDPRD: the protein stability index stood at 3.17.

Take RDICLKNRRGGPPFAFVEFEDPRD: the protein stability index worked out at 3.33.

Regarding RDIMLKNRRGGPPFAFVEFEDPRD, the protein stability index is 3.4.

Consider RDIGLKNRRGGPPFAFVEFEDPRD, for which the protein stability index is 3.34.

With RDIYLKNRRGGPPFAFVEFEDPRD, the protein stability index is 2.92.

RDIPLKNRRGGPPFAFVEFEDPRD: the protein stability index turned out to be 3.08.

On to RDILLKNRRGGPPFAFVEFEDPRD, for which the protein stability index came to 3.42.

With RDIELKNRRGGPPFAFVEFEDPRD, the protein stability index worked out at 3.61.

Consider WDIDLKNRRGGPPFAFVEFEDPRD, for which the protein stability index was determined as 2.69.

In the case of EDIDLKNRRGGPPFAFVEFEDPRD, the protein stability index stood at 4.36.

On to ADIDLKNRRGGPPFAFVEFEDPRD, for which the protein stability index amounted to 4.38.

NDIDLKNRRGGPPFAFVEFEDPRD: the protein stability index came out at 4.2.

As to SDIDLKNRRGGPPFAFVEFEDPRD, the protein stability index was determined as 3.84.

On to TDIDLKNRRGGPPFAFVEFEDPRD, for which the protein stability index came out at 3.94.

Consider FDIDLKNRRGGPPFAFVEFEDPRD, for which the protein stability index stood at 3.19.

In the case of LDIDLKNRRGGPPFAFVEFEDPRD, the protein stability index was determined as 4.21.

With YDIDLKNRRGGPPFAFVEFEDPRD, the protein stability index amounted to 3.65.

On to MDIDLKNRRGGPPFAFVEFEDPRD, for which the protein stability index was determined as 4.04.

On to KDIDLKNRRGGPPFAFVEFEDPRD, for which the protein stability index is 3.57.

Regarding PDIDLKNRRGGPPFAFVEFEDPRD, the protein stability index is 3.81.

With HDIDLKNRRGGPPFAFVEFEDPRD, the protein stability index was 3.89.

DDIDLKNRRGGPPFAFVEFEDPRD: the protein stability index is 4.74.

Consider IDIDLKNRRGGPPFAFVEFEDPRD, for which the protein stability index was 3.1.

Consider GDIDLKNRRGGPPFAFVEFEDPRD, for which the protein stability index was found to be 4.01.

QDIDLKNRRGGPPFAFVEFEDPRD: the protein stability index came to 3.96.

As for CDIDLKNRRGGPPFAFVEFEDPRD, the protein stability index came out at 4.2.

As to VDIDLKNRRGGPPFAFVEFEDPRD, the protein stability index worked out at 3.97.

Turning to RDIDLGNRRGGPPFAFVEFEDPRD, the protein stability index worked out at 3.98.

For the variant RDIDLLNRRGGPPFAFVEFEDPRD, the protein stability index was determined as 3.95.

Regarding RDIDLMNRRGGPPFAFVEFEDPRD, the protein stability index was found to be 4.07.

Consider RDIDLFNRRGGPPFAFVEFEDPRD, for which the protein stability index was 3.61.

Take RDIDLWNRRGGPPFAFVEFEDPRD: the protein stability index was determined as 3.79.

Consider RDIDLRNRRGGPPFAFVEFEDPRD, for which the protein stability index stood at 3.47.

On to RDIDLCNRRGGPPFAFVEFEDPRD, for which the protein stability index turned out to be 3.91.

Take RDIDLVNRRGGPPFAFVEFEDPRD: the protein stability index amounted to 4.09.

In the case of RDIDLHNRRGGPPFAFVEFEDPRD, the protein stability index stood at 4.71.

For RDIDLYNRRGGPPFAFVEFEDPRD, the protein stability index was 3.78.

RDIDLSNRRGGPPFAFVEFEDPRD: the protein stability index stood at 4.35.

With RDIDLDNRRGGPPFAFVEFEDPRD, the protein stability index was 3.84.

In the case of RDIDLTNRRGGPPFAFVEFEDPRD, the protein stability index came to 4.02.

In the case of RDIDLQNRRGGPPFAFVEFEDPRD, the protein stability index amounted to 4.22.

In the case of RDIDLANRRGGPPFAFVEFEDPRD, the protein stability index was 4.18.

Turning to RDIDLPNRRGGPPFAFVEFEDPRD, the protein stability index amounted to 3.63.

As to RDIDLENRRGGPPFAFVEFEDPRD, the protein stability index is 4.28.

In the case of RDIDLINRRGGPPFAFVEFEDPRD, the protein stability index was found to be 3.69.

RDIDLNNRRGGPPFAFVEFEDPRD: the protein stability index came to 4.04.

On to RDIDLKNRCGGPPFAFVEFEDPRD, for which the protein stability index amounted to 3.92.

Consider RDIDLKNRFGGPPFAFVEFEDPRD, for which the protein stability index worked out at 3.94.

RDIDLKNRDGGPPFAFVEFEDPRD: the protein stability index turned out to be 4.43.

Take RDIDLKNRGGGPPFAFVEFEDPRD: the protein stability index was 4.11.

On to RDIDLKNREGGPPFAFVEFEDPRD, for which the protein stability index was 4.18.

On to RDIDLKNRIGGPPFAFVEFEDPRD, for which the protein stability index worked out at 4.24.

Consider RDIDLKNRAGGPPFAFVEFEDPRD, for which the protein stability index came to 4.57.

On to RDIDLKNRHGGPPFAFVEFEDPRD, for which the protein stability index amounted to 4.21.

For the variant RDQDLKNRRGGPPFAFVEFEDPRD, the protein stability index was determined as 4.1.

Turning to RDRDLKNRRGGPPFAFVEFEDPRD, the protein stability index was found to be 3.6.

Turning to RDGDLKNRRGGPPFAFVEFEDPRD, the protein stability index turned out to be 4.15.

For RDEDLKNRRGGPPFAFVEFEDPRD, the protein stability index worked out at 4.71.

With RDPDLKNRRGGPPFAFVEFEDPRD, the protein stability index was found to be 3.98.

Consider RDVDLKNRRGGPPFAFVEFEDPRD, for which the protein stability index is 3.79.

For the variant RDCDLKNRRGGPPFAFVEFEDPRD, the protein stability index came to 3.75.

In the case of RDSDLKNRRGGPPFAFVEFEDPRD, the protein stability index was 3.45.

In the case of RDFDLKNRRGGPPFAFVEFEDPRD, the protein stability index stood at 3.64.

RDDDLKNRRGGPPFAFVEFEDPRD: the protein stability index is 4.57.

For the variant RDWDLKNRRGGPPFAFVEFEDPRD, the protein stability index worked out at 3.95.

For the variant RDHDLKNRRGGPPFAFVEFEDPRD, the protein stability index was found to be 3.92.

Take RDADLKNRRGGPPFAFVEFEDPRD: the protein stability index was 4.29.

With RDTDLKNRRGGPPFAFVEFEDPRD, the protein stability index was determined as 3.73.

Consider RDLDLKNRRGGPPFAFVEFEDPRD, for which the protein stability index came out at 3.81.

With RDNDLKNRRGGPPFAFVEFEDPRD, the protein stability index stood at 3.81.

For the variant RDYDLKNRRGGPPFAFVEFEDPRD, the protein stability index was 3.56.

Consider RDMDLKNRRGGPPFAFVEFEDPRD, for which the protein stability index was 3.57.

Regarding RDKDLKNRRGGPPFAFVEFEDPRD, the protein stability index was 3.77.

For RDIDLKNFRGGPPFAFVEFEDPRD, the protein stability index is 3.75.

On to RDIDLKNLRGGPPFAFVEFEDPRD, for which the protein stability index turned out to be 3.77.

RDIDLKNGRGGPPFAFVEFEDPRD: the protein stability index was found to be 4.46.

RDIDLKNHRGGPPFAFVEFEDPRD: the protein stability index stood at 3.71.

As to RDIDLKNERGGPPFAFVEFEDPRD, the protein stability index came out at 4.73.

Take RDIDLKNNRGGPPFAFVEFEDPRD: the protein stability index stood at 4.27.

As to RDIDLKNWRGGPPFAFVEFEDPRD, the protein stability index was 3.71.

As to RDIDLKNPRGGPPFAFVEFEDPRD, the protein stability index amounted to 4.19.

With RDIDLKNSRGGPPFAFVEFEDPRD, the protein stability index was found to be 4.32.

Turning to RDIDLKNARGGPPFAFVEFEDPRD, the protein stability index was determined as 4.06.

The values are drawn from the supplement of paper PMC10567573.
